Data taken from patent publication US20100310509A1 (published 2010).

T1: soluble human LIFR (leukemia inhibitory factor receptor) (human, UniProt P42702 45-833)
T1 construct: extracellular domain; Bought; also called soluble LIFR
T1 sequence (looked up): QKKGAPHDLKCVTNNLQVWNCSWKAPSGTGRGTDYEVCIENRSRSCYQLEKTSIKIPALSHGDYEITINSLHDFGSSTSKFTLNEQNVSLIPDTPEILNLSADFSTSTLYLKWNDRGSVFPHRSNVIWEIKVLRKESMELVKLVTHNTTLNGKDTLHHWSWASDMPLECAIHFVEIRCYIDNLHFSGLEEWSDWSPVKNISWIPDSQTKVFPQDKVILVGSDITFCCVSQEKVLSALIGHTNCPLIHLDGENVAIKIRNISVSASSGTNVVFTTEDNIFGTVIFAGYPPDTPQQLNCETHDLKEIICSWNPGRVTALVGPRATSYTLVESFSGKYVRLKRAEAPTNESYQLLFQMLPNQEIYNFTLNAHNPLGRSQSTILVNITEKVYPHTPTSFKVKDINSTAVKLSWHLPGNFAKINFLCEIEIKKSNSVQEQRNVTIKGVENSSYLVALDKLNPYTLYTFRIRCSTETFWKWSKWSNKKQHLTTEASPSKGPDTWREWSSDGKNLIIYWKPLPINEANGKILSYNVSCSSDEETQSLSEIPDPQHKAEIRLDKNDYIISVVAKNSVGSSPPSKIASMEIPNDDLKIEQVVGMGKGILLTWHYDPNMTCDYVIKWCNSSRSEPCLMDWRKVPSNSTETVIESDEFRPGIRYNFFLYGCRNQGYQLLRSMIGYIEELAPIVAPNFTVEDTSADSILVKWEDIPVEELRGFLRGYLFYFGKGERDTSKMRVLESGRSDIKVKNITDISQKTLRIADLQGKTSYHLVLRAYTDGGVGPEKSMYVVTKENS

T2: soluble gp130 (R&D Systems # 228-GP-050/CF) (UniProt P40189 23-619, limits assumed)
T2 construct: extracellular domain; Bought
T2 sequence (looked up): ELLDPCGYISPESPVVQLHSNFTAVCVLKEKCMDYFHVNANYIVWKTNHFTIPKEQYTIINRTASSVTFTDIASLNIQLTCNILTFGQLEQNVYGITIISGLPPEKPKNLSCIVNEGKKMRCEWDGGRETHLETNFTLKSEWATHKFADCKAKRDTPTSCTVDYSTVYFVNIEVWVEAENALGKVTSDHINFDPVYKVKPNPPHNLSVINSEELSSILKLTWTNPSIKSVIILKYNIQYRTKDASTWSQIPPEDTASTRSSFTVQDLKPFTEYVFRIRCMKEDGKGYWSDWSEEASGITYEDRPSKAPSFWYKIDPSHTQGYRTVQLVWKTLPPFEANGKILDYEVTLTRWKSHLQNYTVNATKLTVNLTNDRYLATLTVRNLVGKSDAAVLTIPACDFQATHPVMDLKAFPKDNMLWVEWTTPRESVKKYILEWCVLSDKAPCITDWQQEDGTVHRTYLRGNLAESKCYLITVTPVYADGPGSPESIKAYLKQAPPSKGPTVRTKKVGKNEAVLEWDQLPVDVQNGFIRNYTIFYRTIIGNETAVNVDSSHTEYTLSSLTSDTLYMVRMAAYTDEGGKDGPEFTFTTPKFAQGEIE

B1: human leukemia inhibitory factor (LIF) (ligand)
chain: not shown
notes: Purified recombinant protein; also called hLIF
B2: OSM-WT ('AGA' modified human Oncostatin M, referred to as wild-type OSM) (ligand)
chain: AAIGSCSKEYRVLLGQLQKQTDLMQDTSRLLDPYIRIQGLDVPKLREHCRERPGAFPSEETLRGLGRRGFLQTLNATLGCVLHRLADLEQRLPKAQDLERSGLNIEDLEKLQMARPNILGLRNNIYCMAQLLDNSDTAEPTKAGAGASQPPTPTPASDAFQRKLEGCRFLHGYHRFMHSVGRVFSKWGESPN
notes: also called hOSM with AGA modification; not shown: N-terminal FLAG tag left after thrombin removal of GST

Tests used:
[1] = target: T1, soluble human LIFR (leukemia inhibitory …); assay: SPR, ratio of KD values
Protocol: (§1) A concentration series of soluble LIFR (# 249-LR-050/CF, R&D Systems, Minneapolis, Minn.), soluble OSMR (# 4389-OR-50, R&D Systems, Minneapolis, Minn.) or soluble gp130 (# 228-GP-050/CF, R&D Systems, Minneapolis, Minn.) in running buffer (10 mM HEPES pH 7.4, 150 mM NaCl, 3.4 mM EDTA, 0.005% Tween-20) were injected over both channels at a flow rate of 25 μl/min. Following a dissociation period of 3 minutes, the surfaces were regenerated by injecting 10 mM NaOH for 30 seconds. Rate constants for association (kₐ) and dissociation (kd) rates were derived by global analysis of the response curves fit to a 1:1 kinetic model (Equations 1 and 2) using QDat software (BioLogic Software, Ltd. Knoxville Tenn. and Nomadics, Inc. Stillwater, Okla.) using 1:1 stoichiometry.
(§2) Reducing the size of the BC loop improves OSM's affinity towards LIFR and OSMR. […] To directly measure the binding kinetics of these ligand-receptor interactions, surface plasmon resonance (SPR) was used. The cytokines (LIF, OSM-WT, OSM-M1 and OSM-M2) were immobilized on the sensor chip surface, while recombinant soluble receptors were used as the analytes (FIG. 11).

[2] = target: T2, soluble gp130 (R&D Systems # …); assay: SPR, ratio of KD values
Protocol: as §1, §2

| Binder | fold higher affinity than towards gp130 [1] [fold] | fold higher affinity than towards LIFR [2] [fold] |
| --- | --- | --- |
| B1 | 23 |  |
| B2 |  | 2 |
